We go through one molecule from publication doi:10.1101/2022.12.04.519012 (bioRxiv, 2022).

This assay concerns the target DDB1 with N terminal Twin-Strep-FLAG (TSF) tag (human, UniProt Q16531 1-1140). The experiment in a line: cryo-EM structure.

DDB1 with N terminal Twin-Strep-FLAG (TSF) tag, sequence (Q16531 whole entry): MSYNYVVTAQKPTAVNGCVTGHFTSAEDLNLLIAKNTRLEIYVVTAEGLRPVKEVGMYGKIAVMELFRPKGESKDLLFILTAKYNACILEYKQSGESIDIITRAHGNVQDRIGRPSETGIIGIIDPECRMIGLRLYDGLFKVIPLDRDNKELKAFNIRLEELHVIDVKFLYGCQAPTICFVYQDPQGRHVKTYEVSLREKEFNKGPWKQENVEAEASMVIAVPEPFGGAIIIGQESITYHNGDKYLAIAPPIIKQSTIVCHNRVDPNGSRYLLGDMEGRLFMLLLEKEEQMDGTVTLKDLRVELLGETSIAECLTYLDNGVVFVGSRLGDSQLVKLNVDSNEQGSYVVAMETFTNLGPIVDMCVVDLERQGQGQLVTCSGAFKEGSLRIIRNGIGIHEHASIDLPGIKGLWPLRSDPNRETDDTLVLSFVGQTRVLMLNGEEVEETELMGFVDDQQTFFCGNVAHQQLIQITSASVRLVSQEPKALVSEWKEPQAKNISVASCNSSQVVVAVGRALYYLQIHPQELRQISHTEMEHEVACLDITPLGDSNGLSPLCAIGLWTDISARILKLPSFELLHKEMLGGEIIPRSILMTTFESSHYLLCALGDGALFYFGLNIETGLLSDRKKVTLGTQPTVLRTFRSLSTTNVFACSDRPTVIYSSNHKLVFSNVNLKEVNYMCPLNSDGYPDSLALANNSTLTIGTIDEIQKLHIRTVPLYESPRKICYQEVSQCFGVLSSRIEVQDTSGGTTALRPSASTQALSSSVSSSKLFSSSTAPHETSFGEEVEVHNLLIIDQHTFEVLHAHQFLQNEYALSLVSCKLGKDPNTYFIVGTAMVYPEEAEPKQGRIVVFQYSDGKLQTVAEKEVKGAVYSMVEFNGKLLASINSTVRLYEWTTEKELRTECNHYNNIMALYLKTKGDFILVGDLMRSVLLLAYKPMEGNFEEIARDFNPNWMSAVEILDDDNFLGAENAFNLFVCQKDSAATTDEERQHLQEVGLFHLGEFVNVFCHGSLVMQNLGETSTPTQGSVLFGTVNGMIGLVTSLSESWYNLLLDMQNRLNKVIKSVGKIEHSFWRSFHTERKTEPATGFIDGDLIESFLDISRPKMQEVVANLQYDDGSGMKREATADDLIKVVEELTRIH

B1: AMBRA1^WD40 (residues 1-204 directly fused to residues 853-1044) (domain or fragment)
chain: MKVVPEKNAVRILWGRERGARAMGAQRLLQELVEDKTRWMKWEGKRVELPDSPRSTFLLAFSPDRTLLASTHVNHNIYITEVKTGKCVHSLIGHRRTPWCVTFHPTISGLIASGCLDGEVRIWDLHGGSESWFTDSNNAIASLAFHPTAQLLLIATANEIHFWDWSRREPFAVVKTASEMERVRLVRFDPLGHYLLTAIVNPSNSNIANTTYRLQWWDFTKFDLPEISNASVNVLVQNCKIYNDASCDISADGQLLAAFIPSSQRGFPDEGILAVYSLAPHNLGEMLYTKRFGPNAISVSLSPMGRYVMVGLASRRILLHPSTEHMVAQVFRLQQAHGGETSMRRVFNVLYPMPADQRRHVSINSARWLPEPGLGLAYGTNKGDLVICRPEALNSG
On to B1, for which the binding result is “binds”.
